From article PMC6426329 (Journal of immunology (Baltimore, Md. : 1950), 2018)
“Also recorded” adds a separate entry of the source.

Assays:
DRB4 protein = DRB4 protein (Homo sapiens, UniProt P01903+P13762, G164S); experiment: Peptide binding competition assay; details: in vitro competition assay
[1] = target: Recombinant DRB4 protein (DRA1/B4*01:01) (human) (UniProt P01903); experiment: peptide binding competition assay

PPI 12–23: truncated version of the PPI 9–28 peptide (ALLALWGPDPAA)
Binding to DRB4 (in words) (DRB4 protein): able to bind; also recorded: detectable binding

GAD65 265–284 peptide
IC50 [1]: 10 µM

B1: GAD65 513–532 peptide (peptide)
chain: LRTLEDNEERMSRLSKVAPV
IC50 [1]: 5.9 µM

B2: GAD65 449–468 peptide (peptide)
chain: HVDVFKLWLMWRAKGTTGFE
IC50 [1]: 32 µM

B3: GAD65 241–260 peptide (peptide)
chain: PGGAISNMYAMMIARFKMFP
IC50 [1]: 0.6 µM

B4: GAD65 201–220 peptide (peptide)
chain: NTNMFTYEIAPVFVLLEYVT
IC50 [1]: 1.2 µM

B5: GAD65 353–372 peptide (peptide)
chain: ICKKYKIWMHVDAAWGGGLL
IC50 [1]: 0.9 µM

B6: GAD65 305–324 peptide (peptide)
chain: DERGKMIPSDLERRILEAKQ
IC50 [1]: 29 µM

B7: GAD65 553–572 peptide (peptide)
chain: KVNFFRMVISNPAATHQDID
IC50 [1]: 7.8 µM

B8: GAD65 209–228 peptide (peptide)
chain: IAPVFVLLEYVTLKKMREII
IC50 [1]: 21 µM

B9: GAD65 566–585 peptide (peptide)
chain: ATHQDIDFLIEEIERLGQDL
IC50 [1]: 12 µM

B10: GAD65 113–132 peptide (peptide)
chain: DVMNILLQYVVKSFDRSTKV
IC50 [1]: 1.4 µM

B11: GAD65 529–548 peptide (peptide)
chain: VAPVIKARMMEYGTTMVSYQ
IC50 [1]: 2.8 µM

B12: GAD65 313–332 peptide (peptide)
chain: SDLERRILEAKQKGFVPFLV
IC50 [1]: 22 µM
